{
  "source": "patent US20260263563A1",
  "about": "“Method of Treatment of a Thoracolumbar Deformity in a Human Subject with Achondroplasia” (Ascendis Pharma Growth Disorders A/S, priority 2023, published 2026)",
  "origin": "cited, not measured here",
  "settings": "in vivo; cited from earlier work",
  "note": "Positions of bridges follow the written chain, without caps; N, C: chain ends. No end group written: not given here.",
  "data": [
    {"substance": "Vosoritide (PGQEHPNARKYKGANKKGLSKGCFGLKLDRIGSMSGLGC; disulfide 23-39)", "values": [
      {"measurement": "reported t½", "result": "about 28 minutes"}
    ]}
  ]
}
